Patent US6534640B1, “Methods and compositions to alter the cell surface expression of phosphatidylserine and other clot-promoting plasma membrane phospholipids” (Blood Center Research Foundation, priority 1996, dated 2003)
Changes are numbered by the printed parent chain. One block for each molecule: values may come before it.

How the values were obtained:
[1] = test system: human cell lines (Raji, HL60, Dami, HEL, W9, Jurkat, Molt-4, K562); experiment: Measurement of cell surface PS (FVa light chain binding, flow cytometry) in human cell lines after calcium ionophore; type: cell-based; conditions: 2 μM A23187, 1.2 mM free Ca2+
Method: Measurement of cell surface PS. Calcium ionophore-induced exposure of PS on the surface of all cell lines analyzed was detected by the specific binding of coagulation factor Va (light chain) as previously described (P. J. Sims, et al., J. Biol. Chem. 263:18205-18212, 1988; H. Kojima, et al., J. Clin. Invest. 94:2237-2243, 1994). Briefly, cells were washed twice to remove serum proteins and suspended (2×10^6 cells/ml) at 37° C. in RPMI 1640 supplemented with 0.1% BSA, 20 mM HEPES, and adjusted to 1.2 mM free [Ca^2+]. At time=0 A231.87 (0 or 2 μM final concentration) was added from 1 mM stock solution in DMSO, and at times indicated in figure legends, the reaction was stopped by addition of 6 mM EGTA. PS exposed on the cell surface at each time point was detected by incubating (10 minutes, room temperature) 50 μl of the cell suspension with […] FVa, followed by 10 μg/ml anti-FVa, to detect the cell-bound FVa light chain. After staining with 10 μg/ml Tri-Color conjugated goat anti-mouse IgG (CALTAG Laboratories, Burlingame, Calif.), single-cell fluorescence was quantitated by flow cytometry (FL3 channel, FACScan, Becton Dickinson Immunocytometry Systems). Use of Tri-Color conjugate to detect cell-bound FVa enabled simultaneous measurement of cell-associated GFP fluorescence in cell lines transformed with the pEGFP-C2 expression plasmid (fluorescence of GFP detected in FL1 channel). In experiments in which cell lysis was monitored by uptake of propidium iodide, cells were stained for bound FVa with FITC-conjugate of goat anti-mouse IgG (FL1 channel) substituting for Tri-Color conjugate, and propidium iodide was detected in FL3 channel. Propidium iodide (0.5 μg/ml) was added immediately before dilution for flow cytometry.
FIG. 8 depicts western blot analysis of PL scramblase in various human cell lines. Constitutive expression of PL scramblase was analyzed in the human cell lines indicated. […] At times shown (abscissa), EGTA was added and cells analyzed for surface exposed PS as detected by cell-bound FVa light chain (see Materials and Methods). […]

mouse PL scramblase = target: T1, mouse PL scramblase (Mus musculus, UniProt Q9DCW2); experiment: PL scramblase activity of recombinant mouse protein in reconstituted PC/PS proteoliposomes; type: biochemical; conditions: 420 pmoles protein, 1 μmol PL
T1 construct: made in house; host or cells: E. coli TB1 (pMAL-C2)
T1 sequence (Q9DCW2 1-307): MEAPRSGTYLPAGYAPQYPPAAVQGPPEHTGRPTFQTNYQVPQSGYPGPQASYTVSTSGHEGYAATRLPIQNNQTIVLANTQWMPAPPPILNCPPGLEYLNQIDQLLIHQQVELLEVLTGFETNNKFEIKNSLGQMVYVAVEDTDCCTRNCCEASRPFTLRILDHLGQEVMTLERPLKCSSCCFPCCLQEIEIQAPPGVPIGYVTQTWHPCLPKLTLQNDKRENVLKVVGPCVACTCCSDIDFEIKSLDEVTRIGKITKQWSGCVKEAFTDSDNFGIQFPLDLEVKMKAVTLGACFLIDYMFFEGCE
Method: Expression and Purification of Mouse PL Scramblase-MBP Fusion Protein: Mouse PL scramblase was expressed as fusion protein with MBP in E. coli TB1 and purified on amylose resin as previously described for human PL scramblase (Q. Zhou, et al., J. Biol. Chem. 272:18240-18244, 1997). The purified fusion protein was centrifuged at 106,000×g for 1 hour at 4° C. to remove aggregated protein.
Reconstitution and Functional Activity of PL Scramblase: Reconstitution, removal of MBP, and functional assay of PL scramblase were performed as previously described (F. Bassé, et al., J. Biol. Chem. 271:17205-17210, 1996; Q. Zhou, et al., supra, 1997; J. G. Stout, et al., J. Clin. Invest. 99:2232-2238, 1997). Routinely, 420 pmoles of protein were reconstituted with 1 μmol of PL. To remove MBP, proteoliposomes were incubated 3 hours at room temperature with 1/40 (w/w) factor Xa. The digest was terminated by addition of 100 μM Glu-Gly-Arg chloromethyl ketone. Proteoliposomes labeled with NBD-PC were incubated for 2 hours at 37° C. in Tris buffer in the presence or absence of CaCl2 as indicated in figure legends and diluted 25-fold in Tris buffer containing 4 mM EGTA. Initial fluorescence was recorded (SLM Aminco 8000 spectrofluorimeter; excitation at 470 nm, emission at 532 nm), 20 mM dithionite was added, and the fluorescence was continuously monitored for a total of 120 seconds. Scramblase activity was calculated according to the difference in non-quenchable fluorescence observed in presence vs absence of CaCl2. Ionized [Ca^2+] was calculated using FreeCal version 4.0 software (generously provided by Dr. Lawrence F. Brass, University of Pennsylvania, Philadelphia, Pa.).
Functional Activity of Recombinant Mouse PL Scramblase. In order to confirm that the cDNA identified as mouse PL scramblase encodes a protein of similar function to that identified in human, the human and mouse proteins were each expressed in E. coli, purified, and reconstituted in proteoliposomes for measurement of PL mobilizing activity. Mouse or human PL scramblase-MBP fusion protein (420 pmoles) was reconstituted into PC/PS liposomes (1 μmol total PL), respectively, MBP was removed by digestion of the proteoliposomes with factor Xa, and PL scramblase activity was determined as described under “Experimental Procedures” and plotted as a function of external free [Ca^2+]. The results of this experiment indicate that recombinant mouse PL scramblase mediated a Ca^2+-dependent transbilayer movement of membrane PL with a specific activity and affinity for Ca^2+ indistinguishable from that observed for the recombinant human protein.

Molecule: CNc1ccc2oc(C[C@H]3O[C@@]4(CC[C@H]3C)O[C@H]([C@H](C)C(=O)c3ccc[nH]3)[C@H](C)C[C@H]4C)nc2c1C(=O)O [A23187]
- PS mobilized to the cell surface in response to calcium ionophore ([1]; HEL, W9 and Jurkat cells): notably robust responses
- PS mobilized to the cell surface in response to calcium ionophore ([1]; Molt-4 and K562 cells): intermediate responses
- PS mobilized to the cell surface in response to calcium ionophore ([1]; Raji, HL60 and Dami cells): notably unresponsive

- affinity for Ca2+ compared with recombinant human protein (mouse PL scramblase): indistinguishable
- affinity for Ca2+ compared with recombinant human protein (mouse PL scramblase; listed as murine PL scramblase): virtually the same
B1: recombinant mouse PL scramblase: Recombinant murine PL scramblase (SEQ ID NO:4), 307 residues, expressed in E. coli (protein, listed as Mus musculus)
chain: T1 sequence (Q9DCW2 1-307) with Q168N, K178R, K221L, D242S, K256L, K259L, K266L
- specific activity (Ca2+-dependent transbilayer movement of membrane PL) compared with recombinant human protein (mouse PL scramblase): indistinguishable
- specific activity (Ca2+-dependent transbilayer movement of membrane PL) compared with recombinant human protein (mouse PL scramblase; listed as murine PL scramblase): the same activity
